Target: T1, Pyrococcus furiosus RPP29 (Pyrococcus furiosus, UniProt Q8U007 1-127)
T1 sequence (looked up): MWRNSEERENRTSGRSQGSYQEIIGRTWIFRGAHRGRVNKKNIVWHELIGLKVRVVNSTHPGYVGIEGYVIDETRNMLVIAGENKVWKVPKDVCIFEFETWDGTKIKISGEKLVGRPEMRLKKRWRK
Experiment: NMR titration

binding result: binds
B1: Pyrococcus furiosus RPP21 (natural protein)
chain: AKYNEKKEKKRIAKERIDILFSLAERVFPYSPELAKRYVELALLVQQKAKVKIPRKWKRRYCKKCHAFLVPGINARVRLRQKRMPHIVVKCLECGHIMRYPYIKEIKKRRKEKMEYGGLVPR
modifications: 15N-labelled (uniform isotope labelling)
